Columns and labels:
[1] = molecular target: T1, biotin-labeled human CD137 fused to human IgG1 Fc fragment (human, biotin-labeled); test: bead ELISA, IgG on biotin-human CD137-Fc; competitor: free CD3 epsilon 62.5 pmol
T1 construct: also called human CD137-Fc; biotin-human CD137-Fc

[2] = molecular target: T1, biotin-labeled human CD137 fused to …; test: bead ELISA, IgG on biotin-human CD137-Fc; control competitor: free human IgG1 Fc 62.5 pmol
[3] = molecular target: T1, biotin-labeled human CD137 fused to …; test: bead ELISA, IgG on biotin-human CD137-Fc; decrease with free CD3 epsilon 62.5 pmol against free Fc 62.5 pmol

Row | ELISA signal, Free CD3e 62.5 pmol [1] | ELISA signal, Free Fc 62.5 pmol [2] | Signal decrease [3] [%] | Binder
1 | 4370 | 141000 | 96.9 | dBBDu167/L094 (antibody, V domains shown, Purified IgG; Fab genes of the panning output converted into IgG format; also called dBBDu_167/dBBDu.L094) VH: QVQLVESGGGLVQPGRSLRLSCAASGFTFSNAWMHWVRQAPGKGLEWVAQIKDKGNLYAAYYAPSVKGRFTISRDDSKNSIYLQMNSLKTEDTAVYYCHYVHYASAGGGLPGFGVDAWGQGTTVTVSS VL: DIVMTQSPLSLPVTPGEPASISCYASEELLHINRHIYLHWYQQKPGQAPRLLIYKVYNRFNGVPDRFSGSGSGTDFTLKISRVEAEDVGVYYCAQGSSVPFTFGQGTKLEIK
2 | 15900 | 115000 | 86.2 | dBBDu186/L098 (antibody, V domains shown, Purified IgG; Fab genes of the panning output converted into IgG format) VH: QVQLVESGGGLVQPGRSLRLSCAASGFTFSNAWMHWVRQAPGKGLEWVAQIKDRSNQYATYYAPSVKGRFTISRDDSKNSIYLQMNSLKTEDTAVYYCHYVHYAQASTVLPAFGVDAWGQGTTVTVSS VL: DIVMTQSPLSLPVTPGEPASISCAASEELVHINRYIFLHWYQQKPGQAPRLLIYKVSNRFIGVPDRFSGSGSGTDFTLKISRVEAEDVGVYYCAQGSQVPFTFGQGTKLEIK
3 | 88900 | 102000 | 13 | dBBDu186/L100 (antibody, V domains shown, Purified IgG; Fab genes of the panning output converted into IgG format) VH: QVQLVESGGGLVQPGRSLRLSCAASGFTFSNAWMHWVRQAPGKGLEWVAQIKDRSNQYATYYAPSVKGRFTISRDDSKNSIYLQMNSLKTEDTAVYYCHYVHYAQASTVLPAFGVDAWGQGTTVTVSS VL: DIVMTQSPLSLPVTPGEPASISCSASEELVHINRYIFLHWYQQKPGQAPRLLIYKVYNRFMGVPDRFSGSGSGTDFTLKISRVEAEDVGVYYCGQGSSVPFTFGQGTKLEIK
4 | 3090 | 9860 | 68.7 | dBBDu186/L106 (antibody, V domains shown, Purified IgG; Fab genes of the panning output converted into IgG format) VH: QVQLVESGGGLVQPGRSLRLSCAASGFTFSNAWMHWVRQAPGKGLEWVAQIKDRSNQYATYYAPSVKGRFTISRDDSKNSIYLQMNSLKTEDTAVYYCHYVHYAQASTVLPAFGVDAWGQGTTVTVSS VL: DIVMTQSPLSLPVTPGEPASISCSTSEELLHINRFIFLHWYQQKPGQAPRLLIYKVANRFMGVPDRFSGSGSGTDFTLKISRVEAEDVGVYYCAQGSQVPFTFGQGTKLEIK
5 | 20400 | 88100 | 76.9 | dBBDu189/L119 (antibody, V domains shown, Purified IgG; Fab genes of the panning output converted into IgG format) VH: QVQLVESGGGLVQPGRSLRLSCAASGFTFSNAWMHWVRQAPGKGLEWIAQIKDRSNQYATYYAPSVKGRFTISRDDSKNSIYLQMNSLKTEDTAVYYCHYVHYAQASSLLPSFGVDAWGQGTTVTVSS VL: DIVMTQSPLSLPVTPGEPASISCTASQELVHINRFIFLHWYQQKPGQAPRLLIYKVSNRFIGVPDRFSGSGSGTDFTLKISRVEAEDVGVYYCAQGSQVPFTFGQGTKLEIK
6 | 50800 | 83600 | 39.2 | dBBDu186/L108 (antibody, V domains shown, Purified IgG; Fab genes of the panning output converted into IgG format) VH: QVQLVESGGGLVQPGRSLRLSCAASGFTFSNAWMHWVRQAPGKGLEWVAQIKDRSNQYATYYAPSVKGRFTISRDDSKNSIYLQMNSLKTEDTAVYYCHYVHYAQASTVLPAFGVDAWGQGTTVTVSS VL: DIVMTQSPLSLPVTPGEPASISCRTSEELLHINRFTFLHWYQQKPGQAPRLLIYKVSNRFMGVPDRFSGSGSGTDFTLKISRVEAEDVGVYYCAQGSAVPFTFGQGTKLEIK

— patent publication US20240270846A1 (published 2024)
